Results as given in the DeepSol protein solubility set.

Assay: soluble on expression in E. coli; label from the status in PepcDB or PDB records

Sequence	soluble on expression in E. coli
MRRVSINSFLEPNSPNVPNRVTIPDGDLRRNSDDTATDRISLTNQLGKSAYSTTTEDSIDSETSETRMDSSRTSEISGNVKEDPVSENQYVLENSESSESIVVDLEMPGMTLRSKASPRKRYMSKKEKDLNDEKKNFKDLVLTIGQNQIQDPDEDFQITKEAIDLLQSESDKILLEMFTSSNAIATAGERDILTPTDIQTARHIQMIMKKYKK	not soluble
MSLQDIYGTLANLNTKLKQKLSHPYLAKHISAPKIDEDKLLLFHALFEEADIKNNDRENYIVTAMLVQSALDTHDEVTTARVIKRDENKNRQLTVLAGDYFSGLYYSLLSEMKDIYMIRTLATAIKEINEHKIRLYDRSFKDENDFFESVGIVESALFHRVAEHFNLPRWKKLSSDFFVFKRLMNGNDAFLDVIGSFIQLGKTKEEILEDCFKKAKNSIESLLPLNSPIQNILINRLKTISQDQTYHQKVEEGEGHHHHHH	soluble
MGSDKIHHHHHHMVQDRKSTVVITGASSGVGLYAAKALAERGWYVVMACRDVAKAQLAAQSVGIPHQGSYTIMHIDLGSLDSVRQFVKNFRASGHSLDALVCNAAIYMPLIKEPLRSPEGYELTVTTNHLGHFLLCNLMLEDLKKSSSEPRLVILGTVTHNPDELGGKIPPRPDLGDLQGFAEGFKEPISMIDGKKFEPVKAYKDSKVCNVLTMRELHQRYHESTGIVFNSLYPGCVAETPLFRNHYPLFQKIFPLFQKYITKGYVSQELAGERVAAVVADPEYNQSGVYWSWGNRQKEDGKSFVQKVSPQARDDDKGDRLWQLSAKLVGLA	not soluble
MVYKTKLGEIEISDESIFTFEKGIPGFEHLRKFALVFPQETFPIGWLLSLEDSEVGLPVVDPKLVRADYDPAVPSEDLEEIEAENQEALLFFCVLTIPPGKPEKTTINLRAPIILNQKKKKGIQTILENEDYQLRHLLSEEIERSKTVVAAALEHHHHHH	soluble
MKAKDVKLLARYLEMLKDPNIIKTQDVFTVIRYISYNSYGKTMAWNWIQLNWDYLVSRFTINDRYLGRIVTIAEPFNTELQLWQMQSFFAKYPNAGAGAKPREQVLETVKNNIEWLNVNRQSIREWFASLP	not soluble
MSLSITFFVTGDNHLGYYEKNLTLKDDCYKLFEQYLKEATQKEGSILLQCGDLFNDLRPNKSCVSKTANLIKKYCIGDADIPYTIKDEAELSYPLNITDPYINVKHPLFTIHGTNDEPSGYKLIAGSEILASCGLVNYISPKSFEEEKMLKPVIIVNEHTKIALYGLSVLYSSDLDEIVEDETFHIKKPNGNDWICILLLYIGKGTISQTTKDIIEKHFNIIILGGQHSCNIPTGDFNGSVIIQPGSPFFLSFDEYDEIKKGFVKIVVEGQKIYIEKKEYKPIHRMIKKEVYIPETLRDCVISKRIEDFIQQEMKKCITEAVIKENEQILLKLIVKDCNQDCYPDTKKISSLLEEDVVNFIDCIKVKKEGHHHHHH	not soluble
PLVCLADFKAHAQKQLSKTSWDFIEGEADDGITYSENIAAFKRIRLRPRYLRDMSKVDTRTTIQGQEISAPICISPTAFHSIAWPDGEKSTARAAQEANICYVISSYASYSLEDIVAAAPEGFRWFQLYMKSDWDFNKQMVQRAEALGFKALVITIDTPVLGNRRRDKRNQLNLEANILLKDLRALKEEKPTQSVPVSFPKASFCWNDLSLLQSITRLPIILKGILTKEDAELAMKHNVQGIVVSNHGGRQLDEVSASIDALREVVAAVKGKIEVYMDGGVRTGTDVLKALALGARCIFLGRPILWGLACKGEDGVKEVLDILTAELHRCMTLSGCQSVAEISPDLIQFSRL	soluble
GSRNPNKLDINTLTGEERVPVVNKRNGKKMGGAMAPPMKDLPRWLEENPEFAVAPDWTDIVKQSGFVPESMFDRLLTGPVVRGEGAS	soluble
WIRTGDGVRLRTVVWPEGAAGTVLIFSGRTEYAEKYGPAAEALRRRGFASATLDWRGQGLSDRSLRDPLVGHVDDFASYQQDVTAFVAALRAQGLPEPFHLLAHSMGGCIGLRALHEGLPVRAACFSAPMWGIRVHAALRIVAAALGALARATGLGHRYVPGTGTRSYVATAAFDTNVLTRDPEMFAWMQEQLVQAPELGLAGPSLDWLRAAFEETARLKRLPAPDLPALCIVGSAEKVVDLEEIQRRMEGWGRGELQIVPGAEHEVMMDRPEVRDAFFDAA	not soluble
MNCGPPPTLSFAAPMDITLTETRFKTGTTLKYTCLPGYVRSHSTQTLTCNSDGEWVYNTFCIYKRCRHPGELRNGQVEIKTDLSFGSQIEFSCSEGFFLIGSTTSRCEVQDRGVGWSHPLPQCEILEHHHHHH	soluble
MKFRQKHEDFIVNEILEYELNDYGNYFLYKLQKNGIENLKAISYLSKNFEVPTKEIGYCGLKDRHAITTQYVSIPKEYGKLSLDEDNLKLEYVGTIEKPLKIGRLYGNRFEIIARAVDKDEFLKIADNIRNLSSGAPNYYDDQRFGSVFNGKFIAKEILKGNYEEVVKILLTSYTKSEKKQLKDLKRFIAKNWGNWDECLEYIDKKQIRSKMFRNMVKSLTYENDFKKAFKYVDNRLKELFISAYQSYLWNECLKEFLKEVIPKENRIYVDYSCGTFLFYENIEEELFDKLKEMDFPTIVSDVEYTDPEKRIIKAILKKERIKISDFEKLDFGKLKYTKRPIISIPEDVNTGKFKSDELNSKKYKIDLEFSLKKGSYATIILKRVFNILLEHHHHHH	soluble
MGHHHHHHSHMGSELIGRLAPRLGLAEPDMLRKAEEYLRLSRVKCVGLSARTTETSSAVMCLDLAASWMKCPLDRAYLIKLSGLNKETYQSCLKSFECLLGLNSNIGIRDLAVQFSCIEAVNMASKILKSYESSLPQTQQVDLDLSRPLFTSAALLSACKILKLKVDKNKMVATSGVKKAIFDRLCKQLEKIGQQVDREPGDVATPPRKRKKIVVEAPAKEMEKVEEMPHKPQKDEDLTQDYEEWKRKILENAASAQKATAE	not soluble
MVPSEGTWVYVVNLRRVYWGRRTRRAIRAVRMVREFVRRHTKADEVVIDNELNNYIWSRSREKPPARVKIIVSIREEEPEEGGERIRKAVVRLAGRKLRPGRYKG	soluble
MSLQVKHLLLIAILALTAACSSNKETVDENLSESQLYQQAQDDLNNKSYNSAVTKLKALESRYPFGRYAEQAQLELIYANYKNMEPEAARAAAERFIRLHPQHPNVDYAYYLKGLSSFDQDRGLLARFLPLDMTKRDPGAARDSFNEFAQLTSRFPNSRYAPDAKARMVYLRNLLAAYEVHVGHYYLKRQAYVAAANRGRYVVENFQETPAVGDGLAIMVEAYRRLGLDDLASTSLETLKLNYPDNASLKDGEFVARESEADTRSWLAKATLGLIEGGEPPPHMETQAAKDVIKQYEDAEREIPAELKPENQDHSADDEKPESDDDEDSGRSWWSYMTFGLFDEGGSHHHHHH	soluble
MSLTLFHAPRSRSTRIVTLLRELDAIDKVAIKIVDITRGDGSGRKDPKNLHPEGKVPLLDHDGVVIWESIAIIQYLTDLFPEKKMAPVAGDPQRGRYLSWLAWYAGVVEPVLIMQAAGISHPFVDFTFRSPAELAARLETALKDCPYLMGERYTAVDLLLHSPFAWCPAATPESDVVKAWIERCGERPSLQWTANYDACTVVAEGHHHHHH	soluble
MKKLIIIPAYNESSNIVNTIRTIESDAPDFDYIIIDDCSTDNTLAICQKQGFNVISLPINLGIGGAVQTGYRYAQRCGYDVAVQVDGDGQHNPCYLEKMVEVLVQSSVNMVIGSRFITKEGFQSSFARRIGIKYFTWLIALLTGKKITDATSGLRLIDRSLIERFANHYPDDYPEPETVVDVLVSHFKVKEIPVVMNERQGGVSSISLTKSVYYMIKVTLAILVVRLKGNR	not soluble
SNAMKLYIYDHCPFCVKARMIFGLKNIPVELNVLQNDDEATPTRMIGQKMVPILQKDDSRYLPESMDIVHYVDNLDGKPLLTGKRNPAIEEWLRKVNGYVNQLLLPRFAKSAFDEFSTPAARQYFIRKKEASSGSFDNHLAHSAGLIKKIGDDLRLLDKLIVQPNAVNGELSEDDIHLFPLLRNLTLVAGIHWPTKVADYRDNMAKQTQINLLSSMAI	soluble
MSSDKFKLDTLFDDNDEIIEPDGADVKKRNVAYYYHKDVGHFHYGQLHPMKPQRLVVCNDLVVSYEMPKYMTVVESPKLDAADISVFHTEDYVNFLQTVTPKLGLTMPDDVLRQFNIGEDCPIFAGLWDYCTLYAGGSVEGARRLNHKMNDIVINWPGGLHHAKKSEASGFCYVNDIVLGILELLKYHKRVLYIDIDIHHGDGVQEAFNNSDRVMTVSFHRFGQYFPGSGSIMDKGVGPGKYFAINVPLMAAIRDEPYLKLFESVISGVEENFNPEAIVLQCGSDSLCEDRLGQFALSFNAHARAVKYVKSLGKPLMVLGGGGYTLRNVARCWALETGVILGLRMDDEIPGTSLYSHYFTPRLLRPNLVPKMNDANSAAYLASIEKETLACLRMIRGAPSVQMQNIVGIRLDEIEQIEENERLQKSSKSSIEYEVGKVSEKMEEECFVEEDSKPPSFPPGQDPRRIGQYWGYDRSGLAPPRSHSDVIEEAKYEDRDRRKDLNIPGIP	not soluble
MSLTDNSKIRVVVGMSGGVDSSVTALLLKEQGYDVIGVFMKNWDDTDEFGVCTATEDYKDVAAVADKIGIPYYSVNFEKEYWDRVFEYFLAEYRAGRTPNPDVMCNKEIKFKAFLDYAMTLGADYVATGHYAQVKRDENGTVHMLRGADNGKDQTYFLSQLSQEQLQKTLFPLGHLQKSEVREIAERAGLATAKKKDSTGICFIGEKNFKQFLSQYLPAQKGRMMTIDGRDMGEHAGLMYYTIGQRGGLGIGGQHGGDNQPWFVVGKDLSQNILYVGQGFYHEALMSNSLDASVIHFTREMPEEFTFECTAKFRYRQPDSHVAVHVRGDKAEVVFAEPQRAITPGQAVVFYDGKECLGGGMIDMAYKNGQPCQYIEGHHHHHH	soluble
MLLFPRRTNIAFFKTTGIFANFPLLGRTITTSPSFLTHKLSKEVTRASTSPPRPKRIVVAITGATGVALGIRLLQVLKELSVETHLVISKWGAATMKYETDWEPHDVAALATKTYSVRDVSACISSGSFQHDGMIVVPCSMKSLAAIRIGFTEDLITRAADVSIKENRKLLLVTRETPLSSIHLENMLSLCRAGVIIFPPVPAFYTRPKSLHDLLEQSVGRILDCFGIHADTFPRWEGIKSK	soluble
MNDVYAEAKLNKPDFHTAYTLKKDDGGAIALGEGSTGTVTEVTDPEAIATTVVEWTVTPAEALALVKKSKTEMFATVTYESVDGTRGDITITMKASIAMPSGVIKNDQKITEAWSPDKSYVKADVKEPVTVAVTDFKLDLFDVFEGRKVVVSDVTEANFPSFTKDKLTAKFIFSGAKDVTIGTDKYTFTVTANGTQLNASKNSATATKIATIDADGIITYNKADENAHALLNKSAYNVDPFTVGIEIVVTNECDEILPLTGNKFDVKFLRPINVVDLKSAELQDATTGTAKIDMSKLLGLTDWRGQAFAVAPIDFYTYYGVTGSAISIDKDQIMTTLNASEAAPKLLKDVAPNMSINYTCDLQKIGGDITYGDLVYANGKFTINAPFKLFIPVTVKYTFGEVTSTVTLTITPTHQ	not soluble
MAADPASAPVLLHPRRAMVLAAGLGLRMRPLTETMPKPLVAIHDKPLIDWALDHLATAGVEEAVVNLHHLPEMLEAHLQGRATPRIHFSDETGQRLETGGGVRKALPHLGDDPFYVLNSDVLWLNGTIPALDRLAAAWDPETMDALLLLHPLAAAHGYEGLGDFDLDPLGRPTRRAEMHMAPFIFTGVQILHPRLFDDAPEGPFSLNVLYDRALSEDRLAAIVHDGEWYHVGTPQALVHTETILGQHSSMSDQLEHHHHHH	not soluble
